In the supplement of paper PMC5998384:

Legend:
HeLa Kyoto [1] = assay: solubility change mitosis vs G1/S (difference of NP-40 vs SDS log2 ratios) (log2 ratio difference); higher = more soluble in mitosis
HeLa Kyoto [2] = assay: thermal stability score vs G1/S (z-score of summed log2 fold changes over temperatures); higher = more thermally stable than in G1/S
HeLa Kyoto [3] = assay: solubility in G1/S (NP-40 vs SDS abundance) (log2 ratio); higher = more soluble; conditions: cell cycle stage: G1/S
[4] = cell cycle stage: early G1 (4.5 h after nocodazole release)
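Wherever solubility change mitosis vs G1/S (difference of NP-40 vs SDS log2 ratios) is given: synchronized HeLa Kyoto cells (double thymidine block for G1/S, nocodazole release for mitosis), protein amounts in NP-40 versus SDS lysates quantified by mass spectrometry, three biological replicates.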
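Wherever solubility in G1/S (NP-40 vs SDS abundance) is given: HeLa Kyoto cells arrested at G1/S by double thymidine block, proteins quantified by TMT10plex mass spectrometry in mild NP-40 versus SDS extracts, three biological replicates.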
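Wherever thermal stability score vs G1/S (z-score of summed log2 fold changes over temperatures) is given: synchronized HeLa Kyoto cells, proteins quantified by TMT10plex mass spectrometry, three biological replicates, mitosis taken 0.5 h after nocodazole release, G1/S directly after double thymidine block.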

Row | Sequence | solubility change mitosis (log2) (HeLa Kyoto [1]) | thermal stability score (HeLa Kyoto [2]; [4]) | thermal stability score (HeLa Kyoto [2]; cell cycle stage: mitosis) | solubility in G1/S (log2) (HeLa Kyoto [3])
1 | MAAAAVDSAMEVVPALAEEAAPEVAGLSCLVNLPGEVLEYILCCGSLTAADIGRVSSTCRRLRELCQSSGKVWKEQFRVRWPSLMKHYSPTDYVNWLEEYKVRQKAGLEARKIVASFSKRFFSEHVPCNGFSDIENLEGPEIFFEDELVCILNMEGRKALTWKYYAKKILYYLRQQKILNNLKAFLQQPDDYESYLEGAVYIDQYCNPLSDISLKDIQAQIDSIVELVCKTLRGINSRHPSLAFKAGESSMIMEIELQSQVLDAMNYVLYDQLKFKGNRMDYYNALNLYMHQVLIRRTGIPISMSLLYLTIARQLGVPLEPVNFPSHFLLRWCQGAEGATLDIFDYIYIDAFGKGKQLTVKECEYLIGQHVTAALYGVVNVKKVLQRMVGNLLSLGKREGIDQSYQLLRDSLDLYLAMYPDQVQLLLLQARLYFHLGIWPEKSFCLVLKVLDILQHIQTLDPGQHGAVGYLVQHTLEHIERKKEEVGVEVKLRSDEKHRDVCYSIGLIMKHKRYGYNCVIYGWDPTCMMGHEWIRNMNVHSLPHGHHQPFYNVLVEDGSCRYAAQENLEYNVEPQEISHPDVGRYFSEFTGTHYIPNAELEIRYPEDLEFVYETVQNIYSAKKENIDE [FBXO21] | -0.0785 | 0.858 | 1.12 | -0.126
2 | MAALTIATGTGNWFSALALGVTLLKCLLIPTYHSTDFEVHRNWLAITHSLPISQWYYEATSEWTLDYPPFFAWFEYILSHVAKYFDQEMLNVHNLNYSSSRTLLFQRFSVIFMDVLFVYAVRECCKCIDGKKVGKELTEKPKFILSVLLLWNFGLLIVDHIHFQYNGFLFGLMLLSIARLFQKRHMEGAFLFAVLLHFKHIYLYVAPAYGVYLLRSYCFTANKPDGSIRWKSFSFVRVISLGLVVFLVSALSLGPFLALNQLPQVFSRLFPFKRGLCHAYWAPNFWALYNALDKVLSVIGLKLKFLDPNNIPKASMTSGLVQQFQHTVLPSVTPLATLICTLIAILPSIFCLWFKPQGPRGFLRCLTLCALSSFMFGWHVHEKAILLAILPMSLLSVGKAGDASIFLILTTTGHYSLFPLLFTAPELPIKILLMLLFTIYSISSLKTLFRKEKPLFNWMETFYLLGLGPLEVCCEFVFPFTSWKVKYPFIPLLLTSVYCAVGITYAWFKLYVSVLIDSAIGKTKKQ [ALG8] | -0.131 | -0.785 | -1.28 | -0.668
3 | MAASGVEKSSKKKTEKKLAAREEAKLLAGFMGVMNNMRKQKTLCDVILMVQERKIPAHRVVLAAASHFFNLMFTTNMLESKSFEVELKDAEPDIIEQLVEFAYTARISVNSNNVQSLLDAANQYQIEPVKKMCVDFLKEQVDASNCLGISVLAECLDCPELKATADDFIHQHFTEVYKTDEFLQLDVKRVTHLLNQDTLTVRAEDQVYDAAVRWLKYDEPNRQPFMVDILAKVRFPLISKNFLSKTVQAEPLIQDNPECLKMVISGMRYHLLSPEDREELVDGTRPRRKKHDYRIALFGGSQPQSCRYFNPKDYSWTDIRCPFEKRRDAACVFWDNVVYILGGSQLFPIKRMDCYNVVKDSWYSKLGPPTPRDSLAACAAEGKIYTSGGSEVGNSALYLFECYDTRTESWHTKPSMLTQRCSHGMVEANGLIYVCGGSLGNNVSGRVLNSCEVYDPATETWTELCPMIEARKNHGLVFVKDKIFAVGGQNGLGGLDNVEYYDIKLNEWKMVSPMPWKGVTVKCAAVGSIVYVLAGFQGVGRLGHILEYNTETDKWVANSKVRAFPVTSCLICVVDTCGANEETLET [KLHL7] | 0.322 | 0.201 | -0.116 | -0.622
4 | MAASKTQGAVARMQEDRDGSCSTVGGVGYGDSKDCILEPLSLPESPGGTTTLEGSPSVPCIFCEEHFPVAEQDKLLKHMIIEHKIVIADVKLVADFQRYILYWRKRFTEQPITDFCSVIRINSTAPFEEQENYFLLCDVLPEDRILREELQKQRLREILEQQQQERNDTNFHGVCMFCNEEFLGNRSVILNHMAREHAFNIGLPDNIVNCNEFLCTLQKKLDNLQCLYCEKTFRDKNTLKDHMRKKQHRKINPKNREYDRFYVINYLELGKSWEEVQLEDDRELLDHQEDDWSDWEEHPASAVCLFCEKQAETIEKLYVHMEDAHEFDLLKIKSELGLNFYQQVKLVNFIRRQVHQCRCYGCHVKFKSKADLRTHMEETKHTSLLPDRKTWDQLEYYFPTYENDTLLCTLSDSESDLTAQEQNENVPIISEDTSKLYALKQSSILNQLLL [ZNF277] | 0.173 | 0.293 | 1.38 | -0.685
5 | MAATAVAAAVAGTESAQGPPGPAASLELWLNKATDPSMSEQDWSAIQNFCEQVNTDPNGPTHAPWLLAHKIQSPQEKEALYALTVLEMCMNHCGEKFHSEVAKFRFLNELIKVLSPKYLGSWATGKVKGRVIEILFSWTVWFPEDIKIRDAYQMLKKQGIIKQDPKLPVDKILPPPSPWPKSSIFDADEEKSKLLTRLLKSNHPEDLQAANRLIKNLVKEEQEKSEKVSKRVSAVEEVRSHVKVLQEMLSMYRRPGQAPPDQEALQVVYERCEKLRPTLFRLASDTTDDDDALAEILQANDLLTQGVLLYKQVMEGRVTFGNRVTSSLGDIPVSRVFQNPAGCMKTCPLIDLEVDNGPAQMGTVVPSLLHQDLAALGISDAPVTGMVSGQNCCEEKRNPSSSTLPGGGVQNPSADRNLLDLLSAQPAPCPLNYVSQKSVPKEVPPGTKSSPGWSWEAGPLAPSPSSQNTPLAQVFVPLESVKPSSLPPLIVYDRNGFRILLHFSQTGAPGHPEVQVLLLTMMSTAPQPVWDIMFQVAVPKSMRVKLQPASSSKLPAFSPLMPPAVISQMLLLDNPHKEPIRLRYKLTFNQGGQPFSEVGEVKDFPDLAVLGAA [GGA2] | -0.32 | 0.693 | 1.05 | 0.448
6 | MAAVAAEAAATAASPGEGGAGEAEPEMEPIPGSEAGTDPLPVTATEASVPDGETDGQQSAPQADEPPLPPPPPPPGELARSPEAVGPELEAEEKLSVRVAESAAAAPQGGPELPPSPASPPEQPPAPEEREEPPLPQPVAPALVPPAGGDSTVSQLIPGSEVRVTLDHIIEDALVVSFRFGEKLFSGVLMDLSKRFGPHGIPVTVFPKREYKDKPEAMPLQSNTFQEGTEVKCEANGAVPDDPSPVPHPELSLAESLWTSKPPPLFHEGAPYPPPLFIRDTYNQSIPQPPPRKIKRPKRKMYREEPTSIMNAIKLRPRQVLCDKCKNSVVAEKKEIRKGSSATDSSKYEDKKRRNESVTTVNKKLKTDHKVDGKNQNESQKRNAVVKVSNIAHSRGRVVKVSAQANTSKAQLSTKKVLQSKNMDHAKAREVLKIAKEKAQKKQNETSTSKNAHSKVHFTRRYQNPSSGSLPPRVRLKPQRYRNEENDSSLKTGLEKMRSGKMAPKPQSRCTSTRSAGEAPSENQSPSKGPEEASSEVQDTNEVHVPGDQDEPQTLGKKGSKNNISVYMTLNQKKSDSSSASVCSIDSTDDLKSSNSECSSSESFDFPPGSMHAPSTSSTSSSSKEEKKLSNSLKMKVFSKNVSKCVTPDGRTICVGDIVWAKIYGFPWWPARILTITVSRKDNGLLVRQEARISWFGSPTTSFLALSQLSPFLENFQSRFNKKRKGLYRKAITEAAKAAKQLTPEVRALLTQFET [PWWP2A] | 0.43 | 1.31 | 1.07 | -0.7
7 | MAAVDSDVESLPRGGFRCCLCHVTTANRPSLDAHLGGRKHRHLVELRAARKAQGLRSVFVSGFPRDVDSAQLSEYFLAFGPVASVVMDKDKGVFAIVEMGDVGAREAVLSQSQHSLGGHRLRVRPREQKEFQSPASKSPKGAAPDSHQLAKALAEAADVGAQMIKLVGLRELSEAERQLRSLVVALMQEVFTEFFPGCVVHPFGSSINSFDVHGCDLDLFLDLGDLEEPQPVPKAPESPSLDSALASPLDPQALACTPASPPDSQPPASPQDSEALDFETPSSSLAPQTPDSALASETLASPQSLPPASPLLEDREEGDLGKASELAETPKEEKAEGAAMLELVGSILRGCVPGVYRVQTVPSARRPVVKFCHRPSGLHGDVSLSNRLALHNSRFLSLCSELDGRVRPLVYTLRCWAQGRGLSGSGPLLSNYALTLLVIYFLQTRDPPVLPTVSQLTQKAGEGEQVEVDGWDCSFPRDASRLEPSINVEPLSSLLAQFFSCVSCWDLRGSLLSLREGQALPVAGGLPSNLWEGLRLGPLNLQDPFDLSHNVAANVTSRVAGRLQNCCRAAANYCRSLQYQRRSSRGRDWGLLPLLQPSSPSSLLSATPIPLPLAPFTQLTAALVQVFREALGCHIEQATKRTRSEGGGTGESSQGGTSKRLKVDGQKNCCEEGKEEQQGCAGDGGEDRVEEMVIEVGEMVQDWAMQSPGQPGDLPLTTGKHGAPGEEGQPSHAALAERGPKGHEAAQEWSQGEAGKGASLPSSASWRCALWHRVWQGRRRARRRLQQQTKEGAGGGAGTRAGWLATEAQVTQELKGLSGGEERPETEPLLSFVASVSPADRMLTVTPLQDPQGLFPDLHHFLQVFLPQAIRHLK [TUT1] | 0.00387 | 0.3 | 1.52 | -0.00805
8 | MAAVELEWIPETLYNTAISAVVDNYIRSRRDIRSLPENIQFDVYYKLYQQGRLCQLGSEFCELEVFAKVLRALDKRHLLHHCFQALMDHGVKVASVLAYSFSRRCSYIAESDAAVKEKAIQVGFVLGGFLSDAGWYSDAEKVFLSCLQLCTLHDEMLHWFRAVECCVRLLHVRNGNCKYHLGEETFKLAQTYMDKLSKHGQQANKAALYGELCALLFAKSHYDEAYKWCIEAMKEITAGLPVKVVVDVLRQASKACVVKREFKKAEQLIKHAVYLARDHFGSKHPKYSDTLLDYGFYLLNVDNICQSVAIYQAALDIRQSVFGGKNIHVATAHEDLAYSSYVHQYSSGKFDNALFHAERAIGIITHILPEDHLLLASSKRVKALILEEIAIDCHNKETEQRLLQEAHDLHLSSLQLAKKAFGEFNVQTAKHYGNLGRLYQSMRKFKEAEEMHIKAIQIKEQLLGQEDYEVALSVGHLASLYNYDMNQYENAEKLYLRSIAIGKKLFGEGYSGLEYDYRGLIKLYNSIGNYEKVFEYHNVLSNWNRLRDRQYSVTDALEDVSTSPQSTEEVVQSFLISQNVEGPSC [APPBP2] | -0.168 | -0.105 | -0.0209 | -0.17
9 | MAGAAEDARALFRAGVCAALEAWPALQIAVENGFGGVHSQEKAKWLGGAVEDYFMRNADLELDEVEDFLGELLTNEFDTVVEDGSLPQVSQQLQTMFHHFQRGDGAALREMASCITQRKCKVTATALKTARETDEDEDDVDSVEEMEVTATNDGAATDGVCPQPEPSDPDAQTIKEEDIVEDGWTIVRRKK [TSR2] | 0.0427 | -0.881 | 0.659 | 0.00907
10 | MAGAENWPGQQLELDEDEASCCRWGAQHAGARELAALYSPGKRLQEWCSVILCFSLIAHNLVHLLLLARWEDTPLVILGVVAGALIADFLSGLVHWGADTWGSVELPIVGKAFIRPFREHHIDPTAITRHDFIETNGDNCLVTLLPLLNMAYKFRTHSPEALEQLYPWECFVFCLIIFGTFTNQIHKWSHTYFGLPRWVTLLQDWHVILPRKHHRIHHVSPHETYFCITTGWLNYPLEKIGFWRRLEDLIQGLTGEKPRADDMKWAQKIK [TMEM189] | 0.0319 | -3.23 | -3.53 | -0.215
11 | MAGSYPEGAPAVLADKRQQFGSRFLRDPARVFHHNAWDNVEWSEEQAAAAERKVQENSIQRVCQEKQVDYEINAHKYWNDFYKIHENGFFKDRHWLFTEFPELAPSQNQNHLKDWFLENKSEVPECRNNEDGPGLIMEEQHKCSSKSLEHKTQTLPVEENVTQKISDLEICADEFPGSSATYRILEVGCGVGNTVFPILQTNNDPGLFVYCCDFSSTAIELVQTNSEYDPSRCFAFVHDLCDEEKSYPVPKGSLDIIILIFVLSAIVPDKMQKAINRLSRLLKPGGMMLLRDYGRYDMAQLRFKKGQCLSGNFYVRGDGTRVYFFTQEELDTLFTTAGLEKVQNLVDRRLQVNRGKQLTMYRVWIQCKYCKPLLSSTS [METTL2A] | 0.0978 | 0.497 | 0.608 | 0.185
